Experimental data: patent US20220305003A1, “METHODS OF TREATING CANCER WITH AN INHIBITOR OF ZNF827” (CHILDREN'S MEDICAL RESEARCH INSTITUTE, priority 2019, published 2022)

Legend:
[1] = molecular target: T1, replication protein A (RPA), heterotrimeric complex (human, UniProt P27694 1-616; P15927 1-270; P35244 2-121); assay: co-IP of Myc-DDK-tagged ZNF827 mutants, Western blot for RPA
T1 construct: Endogenous RPA of human cell lines, detected with an RPA2 (RPA32) antibody; also called detected through RPA32; RPA2
Experimental: (§1) Resuspended cells were lysed by incubation with rotation for 1 hour at 4° C. For Benzonase treatment to remove DNA, samples were incubated in the lysis buffer described above supplemented with 25 U Benzonase nuclease (Novagen, Merck Millipore) for 2 hours at 4° C. Lysates were subjected to centrifugation at 13,000 rpm for 40 minutes at 4° C. to remove cell debris. The supernatant was then transferred to a fresh cold low bind 1.5 mL tube for subsequent immunoprecipitation. For immunoprecipitation, protein lysates were incubated with antibody for the protein of interest (10 μg per mL lysate) or IgG control (Refer to Tables 4 and 5 for the list of antibodies used in this study), preincubated with Dynabeads Protein G, as per manufacturer's instructions (Life Technologies), with rotation overnight at 4° C. The following day, beads were washed three times in cold lysis buffer and separated on a magnetic rack. Proteins were then eluted from the beads by resuspension in 50 mM Glycine pH 2.8 and sodium dodecyl sulphate (SDS) sample buffer (0.2 M Tris-Cl, pH 6.8, 28% glycerol, 13.5% β-mercaptoethanol, 6% SDS, 6 mM EGTA, and 0.07% bromophenol blue) for 10 minutes at 70° C. and subjected to Western blot analysis, as described below, to detect various protein interactions. […]

[2] = molecular target: T2, topoisomerase 2-binding protein 1 (TOPBP1) (human, UniProt Q92547 1-1522); assay: co-IP with Myc antibody, Western blot for TOPBP1
T2 construct: TOPBP1 in lysates of human cells, co-immunoprecipitated with Myc antibody
Experimental: as §1

T1 sequence (P27694 whole entry, chain 1 of 3): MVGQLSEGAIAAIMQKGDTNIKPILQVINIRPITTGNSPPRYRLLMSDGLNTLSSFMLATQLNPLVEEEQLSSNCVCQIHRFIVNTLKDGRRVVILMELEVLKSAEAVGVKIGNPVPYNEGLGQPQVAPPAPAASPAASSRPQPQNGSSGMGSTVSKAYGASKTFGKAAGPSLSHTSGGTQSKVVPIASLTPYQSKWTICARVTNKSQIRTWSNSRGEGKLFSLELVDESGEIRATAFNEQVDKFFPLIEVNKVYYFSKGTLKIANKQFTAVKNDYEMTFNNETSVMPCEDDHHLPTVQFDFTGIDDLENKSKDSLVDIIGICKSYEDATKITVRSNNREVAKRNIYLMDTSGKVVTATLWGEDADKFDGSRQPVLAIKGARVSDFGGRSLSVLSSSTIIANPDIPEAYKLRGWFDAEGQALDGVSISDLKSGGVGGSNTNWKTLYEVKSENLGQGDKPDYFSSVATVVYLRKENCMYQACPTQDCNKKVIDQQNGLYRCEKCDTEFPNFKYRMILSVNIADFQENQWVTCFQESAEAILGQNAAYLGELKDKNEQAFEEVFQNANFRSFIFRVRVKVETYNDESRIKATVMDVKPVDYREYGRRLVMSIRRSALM
T1 sequence (P15927 whole entry, chain 2 of 3): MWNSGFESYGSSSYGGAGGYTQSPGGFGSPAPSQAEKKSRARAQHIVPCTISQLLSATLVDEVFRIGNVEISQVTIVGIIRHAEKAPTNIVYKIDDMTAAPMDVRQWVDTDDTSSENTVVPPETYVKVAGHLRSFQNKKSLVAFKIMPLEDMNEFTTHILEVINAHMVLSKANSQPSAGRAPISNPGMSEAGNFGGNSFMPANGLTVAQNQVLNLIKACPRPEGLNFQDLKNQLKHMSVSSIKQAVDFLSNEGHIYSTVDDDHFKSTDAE
T1 sequence (P35244 2-121 limits assumed, chain 3 of 3): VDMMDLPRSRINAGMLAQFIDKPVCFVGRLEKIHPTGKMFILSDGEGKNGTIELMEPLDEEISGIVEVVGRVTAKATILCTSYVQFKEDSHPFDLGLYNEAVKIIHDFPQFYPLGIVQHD
T2 sequence (Q92547 whole entry): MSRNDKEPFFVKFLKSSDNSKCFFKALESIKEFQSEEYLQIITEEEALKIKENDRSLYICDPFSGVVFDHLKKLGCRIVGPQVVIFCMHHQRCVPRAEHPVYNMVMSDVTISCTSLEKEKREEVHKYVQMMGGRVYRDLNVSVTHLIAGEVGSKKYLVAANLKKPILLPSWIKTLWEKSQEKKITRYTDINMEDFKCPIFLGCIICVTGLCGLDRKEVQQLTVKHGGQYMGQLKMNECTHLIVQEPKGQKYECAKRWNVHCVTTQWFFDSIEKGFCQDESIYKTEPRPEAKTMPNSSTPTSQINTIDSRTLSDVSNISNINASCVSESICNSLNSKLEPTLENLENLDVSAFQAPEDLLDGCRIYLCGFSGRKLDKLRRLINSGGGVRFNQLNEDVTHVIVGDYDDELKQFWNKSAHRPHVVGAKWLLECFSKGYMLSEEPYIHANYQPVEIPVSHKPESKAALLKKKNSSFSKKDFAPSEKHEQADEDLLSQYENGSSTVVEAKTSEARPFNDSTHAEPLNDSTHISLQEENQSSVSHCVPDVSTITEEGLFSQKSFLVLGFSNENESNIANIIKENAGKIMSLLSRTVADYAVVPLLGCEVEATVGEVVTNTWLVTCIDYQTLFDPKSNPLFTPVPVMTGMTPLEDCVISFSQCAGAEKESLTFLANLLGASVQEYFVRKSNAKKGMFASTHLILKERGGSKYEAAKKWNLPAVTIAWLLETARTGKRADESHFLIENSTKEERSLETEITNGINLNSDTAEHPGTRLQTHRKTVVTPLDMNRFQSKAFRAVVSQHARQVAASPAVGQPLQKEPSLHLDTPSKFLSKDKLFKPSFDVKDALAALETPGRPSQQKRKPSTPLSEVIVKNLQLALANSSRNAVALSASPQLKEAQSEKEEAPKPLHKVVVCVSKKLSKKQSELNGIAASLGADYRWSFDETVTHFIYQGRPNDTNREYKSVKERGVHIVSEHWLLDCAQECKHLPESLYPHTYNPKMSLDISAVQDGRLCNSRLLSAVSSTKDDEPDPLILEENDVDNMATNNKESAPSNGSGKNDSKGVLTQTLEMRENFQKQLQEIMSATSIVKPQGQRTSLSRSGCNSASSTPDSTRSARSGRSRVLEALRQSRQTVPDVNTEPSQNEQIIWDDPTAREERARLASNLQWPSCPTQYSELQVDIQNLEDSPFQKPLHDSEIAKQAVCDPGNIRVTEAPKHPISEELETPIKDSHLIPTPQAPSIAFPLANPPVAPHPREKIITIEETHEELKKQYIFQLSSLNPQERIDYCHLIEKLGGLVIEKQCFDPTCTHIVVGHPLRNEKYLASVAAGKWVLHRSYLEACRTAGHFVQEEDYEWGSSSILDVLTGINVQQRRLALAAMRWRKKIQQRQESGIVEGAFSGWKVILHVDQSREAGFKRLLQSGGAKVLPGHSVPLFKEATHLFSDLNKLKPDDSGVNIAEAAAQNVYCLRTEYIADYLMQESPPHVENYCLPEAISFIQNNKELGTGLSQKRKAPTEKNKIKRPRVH

B1: ZNF827 mutant with no zinc fingers (ZnF1-9 deleted) (other)
chain: MPRRKQEQPKRLPSHVSRQEEAEGELSEGEHWYGNSSETPSEASYGEVQENYKLSLEDRIQEQSTSPDTSLGSTTPSSHTLELVALDSEVLRDSLQCQDHLSPGVSSLCDDDPGSNKPLSSNLRRLLEAGSLKLDAAATANGRVESPVNVGSNLSFSPPSHHAQQLSVLARKLAEKQEQNDQYTPSNRFIWNQGKWLPNSTTTCSLSPDSAILKLKAAANAVLQDKSLTRTEETMRFESFSSPFSSQSASSTLAALSKKVSERSLTPGQEHPPPASSFLSLASMTSSAALLKEVAARAAGSLLAEKSSLLPEDPLPPPPSEKKPEKVTPPPPPPPPPPPPPPPQSLELLLLPVPKGRVSKPSNSASEEESGKPQHFLRTEAKVKEEIPDPDVKGSPHLSDSACLGQQREGGGTELVGTMMTSNTPERTSQGGAGVSPLLVKEEPKEDNGLPTSFTLNAADRPATRTRPLEQKLISEEDLAANDILDYKDDDDKV
notes: also called ZnF1-9d mutant
**Q.** Does B1 bind [1]?
**A.** Result: no binding

**Q.** Does B1 bind [2]?
**A.** Result: no binding
